# Where “and” joins values, the source holds several entries; their conditions need not be identical. Equal values may be shown once.
# T1: Atx1 (yeast copper chaperone) (yeast (Saccharomyces cerevisiae)), P38636
# T1 chain: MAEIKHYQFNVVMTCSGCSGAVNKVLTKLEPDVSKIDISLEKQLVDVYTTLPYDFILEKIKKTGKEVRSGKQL
# T2: ATOX1 (human copper chaperone), wild type (human), O00244
# T2 chain: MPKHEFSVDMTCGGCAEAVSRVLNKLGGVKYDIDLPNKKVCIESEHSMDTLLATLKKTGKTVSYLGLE
# B1: Atx1 (yeast copper chaperone), P38636 1-73 (natural protein)
# chain: MAEIKHYQFNVVMTCSGCSGAVNKVLTKLEPDVSKIDISLEKQLVDVYTTLPYDFILEKIKKTGKEVRSGKQL
# B2: ATOX1 (human copper chaperone), wild type, O00244 1-68 (natural protein)
# chain: MPKHEFSVDMTCGGCAEAVSRVLNKLGGVKYDIDLPNKKVCIESEHSMDTLLATLKKTGKTVSYLGLE
# B3: C41S-ATOX1 (natural protein, human, UniProt O00244 1-68, looked up)
# chain: MPKHEFSVDMTCGGCAEAVSRVLNKLGGVKYDIDLPNKKVSIESEHSMDTLLATLKKTGKTVSYLGLE
# notes: ATOX1 (HAH1), human copper chaperone, with the non-conserved Cys 41 mutated to Ser; Made on the ATOX1 construct in pGEX-6P-2 to imitate Atx1, which lacks this Cys; also called C41S-ATOXI; source: E. coli BL21 (DE3), GST fusion from pGEX-6P-2, purified, GST removed with PreScission protease; not shown: GST, N-terminal, cleaved
# Key:
# [1] = target: T1, Atx1 (yeast copper chaperone) (yeast …); assay: cross-linking; EGS (spacer arm 16.1 A), Cd(II) + DTT; products on SDS-PAGE; conditions: remark: other sources report otherwise
# [2] = target: T1, Atx1 (yeast copper chaperone) (yeast …); assay: cross-linking; Hg(II) + DTT; DMS or EGS for ATOX1, EGS for Atx1; products on SDS-PAGE; conditions: remark: other sources report otherwise
# [3] = target: T1, Atx1 (yeast copper chaperone) (yeast …); assay: SEC; Bio-Gel P-10 column (1.5 x 60 cm), 20 mM MES pH 6.0; reduced apoprotein (+DTT 3:1); 0.3, 0.5 and 0.3 mM ATOX1, C41S-ATOX1 and Atx1; size against myoglobin (18 kDa) and cytochrome C (12.5 kDa); conditions: remark: other sources report otherwise
# [4] = target: T1, Atx1 (yeast copper chaperone) (yeast …); assay: SEC; Bio-Gel P-10 column (1.5 x 60 cm), 20 mM MES pH 6.0; Cd(II) complex (metal 1:1, DTT 3:1); 0.3, 0.5 and 0.3 mM ATOX1, C41S-ATOX1 and Atx1; size against myoglobin (18 kDa) and cytochrome C (12.5 kDa); conditions: remark: other sources report otherwise
# [5] = target: T2, ATOX1 (human copper chaperone), wild …; assay: cross-linking; DMS (spacer arm 11 A), Cd(II) + DTT; products on SDS-PAGE; conditions: remark: other sources report otherwise
# [6] = target: T2, ATOX1 (human copper chaperone), wild …; assay: cross-linking; EGS (spacer arm 16.1 A), Cd(II) + DTT; products on SDS-PAGE; conditions: remark: other sources report otherwise
# [7] = target: T2, ATOX1 (human copper chaperone), wild …; assay: cross-linking; Hg(II) + DTT; DMS or EGS for ATOX1, EGS for Atx1; products on SDS-PAGE; conditions: remark: other sources report otherwise
# [8] = target: T2, ATOX1 (human copper chaperone), wild …; assay: cross-linking; metal complexes + DTT (which metals not told), DMS or EGS; faint higher bands on SDS-PAGE; conditions: remark: other sources report otherwise
# [9] = target: T2, ATOX1 (human copper chaperone), wild …; assay: SEC; Bio-Gel P-10 column (1.5 x 60 cm), 20 mM MES pH 6.0; reduced apoprotein (+DTT 3:1); 0.3, 0.5 and 0.3 mM ATOX1, C41S-ATOX1 and Atx1; size against myoglobin (18 kDa) and cytochrome C (12.5 kDa); conditions: remark: other sources report otherwise
# [10] = target: T2, ATOX1 (human copper chaperone), wild …; assay: SEC; Bio-Gel P-10 column (1.5 x 60 cm), 20 mM MES pH 6.0; Cd(II) complex (metal 1:1, DTT 3:1); 0.3, 0.5 and 0.3 mM ATOX1, C41S-ATOX1 and Atx1; size against myoglobin (18 kDa) and cytochrome C (12.5 kDa); conditions: remark: other sources report otherwise
# [11] = target: the molecule itself; assay: SEC; Bio-Gel P-10 column (1.5 x 60 cm), 20 mM MES pH 6.0; reduced apoprotein (+DTT 3:1); 0.3, 0.5 and 0.3 mM ATOX1, C41S-ATOX1 and Atx1; size against myoglobin (18 kDa) and cytochrome C (12.5 kDa)
binder,measurement,setting,value
B1,stoichiometry N,[1],2
same,stoichiometry N,[2],2
same,stoichiometry N,[3],2
same,stoichiometry N,[4],2
B2,stoichiometry N,[5],2
same,stoichiometry N,[6],2
same,stoichiometry N,[7],2
same,stoichiometry N,[8],3 and 4
same,stoichiometry N,[9],2
same,stoichiometry N,[10],2
B3,stoichiometry N,[11],2
